# Assay results as given in patent publication US20120042399A1.
# Legend:
# [1] = target: PASD1(1) (…) presented by the HHD chimeric monochain MHC class I molecule (human; mouse)
# [2] = target: PASD1(1) (…) presented by the HHD chimeric monochain MHC class I molecule (human; mouse); remark: listed apart in the source
# [3] = target: PASD1(2) (…) presented by the HHD chimeric monochain MHC class I molecule (human; mouse)
# [4] = target: PASD1(1) (…) presented by the HHD chimeric monochain MHC class I molecule (human; mouse); remark: listed apart in the source
substance,measurement,setting,value
splenocytes from HHD mice vaccinated with p.DOM-PASD1(1) (cells without a defined receptor),specific lysis of KMS-12-HHD cells (51Cr release assay),[1],< 40%
same,IFNγ-secreting spot-forming cells ex vivo (ELISPOT) (SFCs/10^6 cells),[2],117
splenocytes from HHD mice vaccinated with p.DOM-PASD1(2) (cells without a defined receptor),IFNγ-secreting spot-forming cells ex vivo (ELISPOT) (SFCs/10^6 cells),[3],53
splenocytes from HHD mice vaccinated with p.DOM-PASD1FL (cells without a defined receptor),IFNγ-secreting spot-forming cells ex vivo (ELISPOT) (SFCs/10^6 splenocytes),[4],756
